Data: patent US20220064301A1 (XILIO DEVELOPMENT, published 2022)
Read-outs that look alike come from different tables or passages of the source. One block for each binder: values may come before it.

How the values were obtained:
[1] = biological target: T1, human CTLA4-Fc (R&D #7268-CT) (human, UniProt P16410 36-162); experiment: huCTLA4-Fc binding ELISA (luminescence)
T1 construct: Bought reagent coated on ELISA plates; also called human CTLA-Fc; not shown: Fc part of the bought fusion; not described
T1 sequence (P16410 36-162 limits assumed): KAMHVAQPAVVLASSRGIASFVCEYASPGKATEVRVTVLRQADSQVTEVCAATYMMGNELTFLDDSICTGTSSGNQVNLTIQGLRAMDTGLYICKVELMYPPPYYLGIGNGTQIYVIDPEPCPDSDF
Experimental: All ELISA were performed in a manner substantially similar to the description below or generally consistent with methods known in the art. Polystyrene 96-well microplates (Fisher #07-200-591) were coated with 1 μg/mL of human CTLA4-Fc (R&D #7268-CT) per well and stored overnight at 4° C. Plates were washed with 0.05% Tween in TBS (TBS-T), blocked with 1% BSA (Sigma Aldrich #B4287-25G), and washed with TBS-T. Serial dilutions of samples containing anti-CTLA4 antibodies described below were made in assay buffer (PBS+0.05% Tween+1% BSA), added to plate, and shaken orbitally at 100 RPM at room temperature for one hour. After washing with TBS-T, anti-human Kappa light chain [clone: SB81a]-HRP (Abcam #ab79115) diluted to 1:8000 in assay buffer was applied to the wells and shaken at room temperature for one hour. Plates were washed with TBS-T, HRP substrate (Super Signal Pico Chemiluminescent Substrate, Thermo #37069) was applied to plate, and luminescence was recorded using a spectrophotometer (BioTek). Data was analyzed with GraphPad Prism.

human CTLA4 (huCTLA4) [2] = biological target: T2, human CTLA4 (huCTLA4) (human, UniProt P16410 36-161, limits assumed); experiment: SPR, Biacore T200, 37 C
T2 sequence (P16410 36-161 limits assumed): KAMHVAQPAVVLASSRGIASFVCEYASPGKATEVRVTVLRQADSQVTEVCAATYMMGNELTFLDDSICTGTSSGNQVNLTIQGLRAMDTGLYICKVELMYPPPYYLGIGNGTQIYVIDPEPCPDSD
Experimental: (§1) All Surface Plasmon Resonance (SPR) analysis were performed in a manner substantially similar to the description below or generally consistent with methods known in the art. SPR was performed on certain antibodies to assess binding between the antibody, or fragment thereof, and a target protein, such as human CTLA4 (huCTLA4), cynomolgus CTLA4 (cynoCTLA4), or FcγRIIIa (CD16a). […] SPR analysis was performed on a GE Biacore T200 instrument at 37° C. The antibody and isotype control (reference channel) were coupled at 100 RU immobilization level to CM5 chip (GE Healthcare). Peptides were synthesized and diluted into HBS-EP+ running buffer (GE Healthcare). The binding data were analyzed using Biacore Evaluation Software, version 3.0.

[3] = biological target: cynomolgus CTLA4 (cynoCTLA4) (cynomolgus, UniProt G7PL88 36-161); experiment: SPR, Biacore T200, 37 C
cynomolgus CTLA4 (cynoCTLA4), sequence (G7PL88 entry or part of it limits assumed): as the sequence (P16410 36-161 limits assumed) above, with S14N, I18T, L106M counted along it
Experimental: as §1

human CTLA4 (huCTLA4) [4] = biological target: T2, human CTLA4 (huCTLA4); experiment: SPR, Biacore T200, 37 C; reference ipilimumab
Experimental: as §1

human CTLA4 (huCTLA4) [5] = biological target: T2, human CTLA4 (huCTLA4); experiment: SPR (Biacore), fit of the sensorgrams of FIG. 2A
Experimental: as §1

[6] = biological target: T3, FcγRIIIa on Jurkat effector cells (FcγRIIIa reporter bioassay); experiment: cell-based or functional assay
T3 sequence (P08637 whole entry): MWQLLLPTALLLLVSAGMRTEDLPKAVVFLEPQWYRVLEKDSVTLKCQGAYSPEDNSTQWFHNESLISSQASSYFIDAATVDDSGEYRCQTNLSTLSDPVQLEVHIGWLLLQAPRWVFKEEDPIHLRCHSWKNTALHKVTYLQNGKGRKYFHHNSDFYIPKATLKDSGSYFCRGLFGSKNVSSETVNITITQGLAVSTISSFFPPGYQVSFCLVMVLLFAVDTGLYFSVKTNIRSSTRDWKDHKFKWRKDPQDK

[7] = biological target: T3, FcγRIIIa on Jurkat effector cells …; experiment: cell-based or functional assay; remark: listed apart in the source
[8] = biological target: T4, rhCTLA4-Fc (recombinant human CTLA4-Fc) (human, UniProt P16410 36-162, limits assumed); experiment: SPR, channel Ch1
T4 construct: Used in SPR with the Fabs; not shown: Fc part; not described
T4 sequence (P16410 36-162 limits assumed): as the sequence (P16410 36-162 limits assumed) above
Experimental: as §1

cynoCTLA4-Fc [9] = biological target: T5, cynoCTLA4-Fc (cynomolgus, UniProt G7PL88 36-161); experiment: SPR, channel Ch1
T5 construct: also called cynomolgus CTLA4-Fc
T5 sequence (G7PL88 entry or part of it limits assumed): as the sequence (P16410 36-161 limits assumed) above, with S14N, I18T, L106M counted along it
Experimental: as §1

[10] = biological target: T4, rhCTLA4-Fc (recombinant human CTLA4-Fc); experiment: SPR, channel Ch2
Experimental: as §1

cynoCTLA4-Fc [11] = biological target: T5, cynoCTLA4-Fc; experiment: SPR, channel Ch2
Experimental: as §1

[12] = biological target: T4, rhCTLA4-Fc (recombinant human CTLA4-Fc); experiment: SPR, channel Ch3
Experimental: as §1

cynoCTLA4-Fc [13] = biological target: T5, cynoCTLA4-Fc; experiment: SPR, channel Ch3
Experimental: as §1

[14] = biological target: T4, rhCTLA4-Fc (recombinant human CTLA4-Fc); experiment: SPR, average of three channels
Experimental: as §1

cynoCTLA4-Fc [15] = biological target: T5, cynoCTLA4-Fc; experiment: SPR, average of three channels
Experimental: as §1

[16] = biological target: T3, FcγRIIIa on Jurkat effector cells …; experiment: cell-based or functional assay; remark: listed apart in the source

B1: Antibody 2-1 (version of humanized anti-CTLA4 Antibody 2 having a wild-type Fc region) (antibody)
VH: not shown
VL: EIVLTQSPDFQSVTPKEKVTITCSANSALSYMYWYQQKPDQSPKLWVHGTSNLASGVPSRFSGSGSGTDFTLTINSLEAEDAATYYCHHWSNTQWTFGGGTKVEIKRTVAAPSVFIFPPSDEQLKSGTASVVCLLNNFYPREAKVQWKVDNALQSGNSQESVTEQDSKDSTYSLSSTLTLSKADYEKHKVYACEVTHQGLSSPVTKSFNRGEC
notes: Full antibody with wild-type Fc; copies: 2 + 2
EC50 [1]: 330 pM

B2: Antibody 2-6 (a version of Antibody 2 having a S239D mutation, an I332E mutation in the Fc region) (antibody)
VH: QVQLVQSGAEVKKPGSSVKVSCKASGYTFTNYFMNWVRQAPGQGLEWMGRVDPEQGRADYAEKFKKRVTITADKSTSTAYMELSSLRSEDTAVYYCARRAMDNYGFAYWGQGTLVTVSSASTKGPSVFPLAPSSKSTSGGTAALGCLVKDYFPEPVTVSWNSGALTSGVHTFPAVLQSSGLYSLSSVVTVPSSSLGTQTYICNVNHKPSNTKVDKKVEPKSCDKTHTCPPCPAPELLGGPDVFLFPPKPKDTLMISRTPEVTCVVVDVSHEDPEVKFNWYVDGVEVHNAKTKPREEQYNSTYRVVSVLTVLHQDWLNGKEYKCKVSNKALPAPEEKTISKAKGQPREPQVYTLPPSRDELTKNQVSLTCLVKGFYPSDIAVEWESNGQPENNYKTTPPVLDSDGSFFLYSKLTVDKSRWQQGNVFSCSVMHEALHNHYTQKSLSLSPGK
VL: B1 VL
notes: copies: 2 + 2
Kd (human CTLA4 (huCTLA4) [2]): 91 pM
Kd [3]: 131 pM
fold greater binding affinity than ipilimumab (by KD) (human CTLA4 (huCTLA4) [4]): ~18 fold
koff (human CTLA4 (huCTLA4) [5]): 3.33e-05 s⁻¹
kon (human CTLA4 (huCTLA4) [5]): 366000 M⁻¹ s⁻¹

B4: Antibody 2-Fab (a Fab of Antibody 2) (Fab, V domains shown)
VH: QVQLVQSGAEVKKPGSSVKVSCKASGYTFTNYFMNWVRQAPGQGLEWMGRVDPEQGRADYAEKFKKRVTITADKSTSTAYMELSSLRSEDTAVYYCARRAMDNYGFAYWGQGTLVTVSS
VL: EIVLTQSPDFQSVTPKEKVTITCSANSALSYMYWYQQKPDQSPKLWVHGTSNLASGVPSRFSGSGSGTDFTLTINSLEAEDAATYYCHHWSNTQWTFGGGTKVEIKR
notes: Fab
Kd [8]: 4.53 pM
koff [8]: 1.63e-06 s⁻¹
kon [8]: 361000 M⁻¹ s⁻¹
Kd (cynoCTLA4-Fc [9]): 623 pM
koff (cynoCTLA4-Fc [9]): 0.000226 s⁻¹
kon (cynoCTLA4-Fc [9]): 363000 M⁻¹ s⁻¹
Kd [10]: 1.51 pM
koff [10]: 5.19e-07 s⁻¹
kon [10]: 345000 M⁻¹ s⁻¹
Kd (cynoCTLA4-Fc [11]): 794 pM
koff (cynoCTLA4-Fc [11]): 0.000229 s⁻¹
kon (cynoCTLA4-Fc [11]): 289000 M⁻¹ s⁻¹
Kd [12]: 5.55 pM
koff [12]: 1.84e-06 s⁻¹
kon [12]: 331000 M⁻¹ s⁻¹
Kd (cynoCTLA4-Fc [13]): 920 pM
koff (cynoCTLA4-Fc [13]): 0.000234 s⁻¹
kon (cynoCTLA4-Fc [13]): 254000 M⁻¹ s⁻¹
Kd [14]: 3.86 pM
Kd (cynoCTLA4-Fc [15]): 779 pM

B5: Antibody 1-1 (version of humanized anti-CTLA4 Antibody 1 having a wild-type Fc region) (antibody, V domains shown)
VH: QVQLQESGPGLVKPSETLSLTCSVTYHTITSGYDWTWIRKPPGKGMEWIGYISYSGNTNYNPSLKSRVTISRDTSKNQFFLKLSSVTAADTAVYYCASMMVPHYYVMDAWGQGTLVTVSSA
VL: DIVMTQTPLSLSVTPGQPASISCRSSQSLLNSDGNTYLYWYLQKPGQSPQLLIYLVSKLGSGVPNRFSGSGSGTDFTLKISRVEAEDVGVYYCVQGTHDPWTFGGGTKVEIKR
notes: VL 25 / VH 26 are inferred from the parallel a)/b) order of the embodiments and because 30/31 go with the CDRs of Antibody 2; Full antibody with wild-type Fc
EC50 of reporter activation (RLU), ADCC FcγRIIIa reporter bioassay with CTLA4 target cells [16]: 1.05 ng/mL
EC50 [1]: 410 pM

More lines, in order of falling EC50 [1], values ahead:

EC50 of reporter activation (RLU), ADCC FcγRIIIa reporter bioassay with CTLA4 target cells [16]: 0.327 ng/mL
EC50 [1]: 560 pM
B7: Antibody 1-2 (version of Antibody 1 having a S239D mutation and an I332E mutation in the Fc region) (antibody, V domains shown)
VH: B5 VH
VL: B5 VL
notes: Variable domains inferred as for Antibody 1-1; Full antibody with S239D and I332E in the Fc region

EC50 of reporter activation (RLU), ADCC FcγRIIIa reporter bioassay with CTLA4 target cells [16]: 0.163 ng/mL
EC50 of reporter activation (RLU), ADCC FcγRIIIa reporter bioassay with CTLA4 target cells [7]: 0.163 ng/mL
EC50 [1]: 410 pM
B6: Antibody 1-aFuc (afucosylated version of Antibody 1) (antibody, V domains shown)
VH: B5 VH
VL: B5 VL
modifications: afucosylated Fc glycan
notes: Variable domains inferred as for Antibody 1-1; Afucosylated full antibody

EC50 of reporter activation (RLU), ADCC FcγRIIIa reporter bioassay with CTLA4 target cells [6]: 0.0177 ng/mL
EC50 of reporter activation (RLU), ADCC FcγRIIIa reporter bioassay with CTLA4 target cells [7]: 0.0177 ng/mL
EC50 [1]: 360 pM
B3: Antibody 2-aFuc (afucosylated version of Antibody 2) (antibody, V domains shown)
VH: QVQLVQSGAEVKKPGSSVKVSCKASGYTFTNYFMNWVRQAPGQGLEWMGRVDPEQGRADYAEKFKKRVTITADKSTSTAYMELSSLRSEDTAVYYCARRAMDNYGFAYWGQGTLVTVSSA
VL: B4 VL
modifications: afucosylated Fc glycan
notes: Afucosylated full antibody
